Data reported in US20190085093A1 (SEOUL NATIONAL UNIVERSITY R AND DB FOUNDATION, published 2019).
Ends that are not written are not given here.

T1: FCHo1-C-3×DDK (full-length wild-type FCHo1 with C-terminally fused 3×FLAG tag) (human, UniProt O14526 1-889)
T1 construct: Expressed in A549 cells and pulled down with anti-FLAG gel; also called FCHo1-FLAG; wt FCHo1; not shown: C-terminal 3×DDK (3×FLAG) tag of the pCMV6-C-3×DDK vector
T1 sequence (looked up): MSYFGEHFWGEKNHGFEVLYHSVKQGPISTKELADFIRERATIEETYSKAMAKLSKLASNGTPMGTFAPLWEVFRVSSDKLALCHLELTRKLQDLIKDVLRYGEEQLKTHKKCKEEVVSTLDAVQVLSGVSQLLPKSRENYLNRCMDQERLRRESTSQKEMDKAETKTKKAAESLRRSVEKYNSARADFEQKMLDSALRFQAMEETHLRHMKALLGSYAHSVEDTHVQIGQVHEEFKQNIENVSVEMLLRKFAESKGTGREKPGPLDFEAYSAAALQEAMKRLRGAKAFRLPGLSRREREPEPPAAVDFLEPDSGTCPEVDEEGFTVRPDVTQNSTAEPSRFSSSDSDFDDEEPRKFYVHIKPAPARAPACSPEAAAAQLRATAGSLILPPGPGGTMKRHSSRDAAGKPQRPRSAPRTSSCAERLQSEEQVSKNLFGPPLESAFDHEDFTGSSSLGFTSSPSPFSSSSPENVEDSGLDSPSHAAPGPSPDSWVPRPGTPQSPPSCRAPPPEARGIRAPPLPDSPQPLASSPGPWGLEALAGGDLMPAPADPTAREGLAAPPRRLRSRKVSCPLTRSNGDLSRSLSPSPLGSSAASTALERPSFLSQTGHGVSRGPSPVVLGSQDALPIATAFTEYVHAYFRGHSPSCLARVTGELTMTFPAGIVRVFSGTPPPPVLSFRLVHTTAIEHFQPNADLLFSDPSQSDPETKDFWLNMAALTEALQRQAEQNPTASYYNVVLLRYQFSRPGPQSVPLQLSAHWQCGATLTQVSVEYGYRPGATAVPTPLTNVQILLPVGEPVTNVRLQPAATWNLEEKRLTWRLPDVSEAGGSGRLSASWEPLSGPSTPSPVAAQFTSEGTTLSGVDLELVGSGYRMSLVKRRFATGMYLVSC


What was measured:
Akt1 [1] = target: T2, Akt1 (UniProt P31749 1-480); experiment: immunofluorescence and PLA, A549 cells
T2 construct: Endogenous protein detected with an Akt1 antibody (LF-MA0245); also called endogenous Akt1
T2 sequence (P31749 whole entry): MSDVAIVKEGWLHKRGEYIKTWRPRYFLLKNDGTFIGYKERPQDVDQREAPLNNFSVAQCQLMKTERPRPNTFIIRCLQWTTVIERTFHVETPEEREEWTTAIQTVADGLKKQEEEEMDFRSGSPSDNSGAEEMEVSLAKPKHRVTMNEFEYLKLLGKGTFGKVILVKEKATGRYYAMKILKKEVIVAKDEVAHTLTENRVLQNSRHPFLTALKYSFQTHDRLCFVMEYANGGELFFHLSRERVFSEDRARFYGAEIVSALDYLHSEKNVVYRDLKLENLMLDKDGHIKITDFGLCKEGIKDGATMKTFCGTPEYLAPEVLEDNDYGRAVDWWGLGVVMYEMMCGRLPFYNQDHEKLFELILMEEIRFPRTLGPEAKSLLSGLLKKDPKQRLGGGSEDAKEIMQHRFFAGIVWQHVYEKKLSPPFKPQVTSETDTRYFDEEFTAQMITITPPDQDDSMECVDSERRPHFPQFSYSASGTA
Procedure: A549 cells were placed in 8-well chamber cover glasses or high-precision cover glasses and were fixed with 3% paraformaldehyde for 10 minutes at room temperature, permeabilized with 0.5% Triton® X-100 (Sigma-Aldrich) for 5 min, blocked for 30 minutes. Then, the cells were incubated with primary or secondary antibodies in blocking solution (PBS with 0.1% saponin and 3% BSA). Alexa Fluor 647 conjugated anti-rabbit secondary antibody and an oxygen scavenging system (0.5 mg/ml glucose oxidase, 40 μg/ml catalase, 10% glucose, pH 7.4) were used for stochastic optical reconstruction microscopy (dSTORM) imaging. Before imaging, 30 mM mercaptoethylamine ([…]; Sigma) was added to obtain a final thiol concentration of 10-200 mM. All dSTORM and SIM images were obtained from Carl Zeiss ELYRA PS.1 (super-resolution microscopy), and all CLSM images were obtained from the Carl Zeiss LSM710 (confocal laser scanning microscope).
Immunofluorescence and PLA assays confirmed whether the F-BAR domain binds to Akt1 at the ICB and plasma membrane and FCHo1 and Akt1 interact in the midbody. […] Interaction of FCHo1 and Akt1 in the midbody was confirmed by PLA, and Calmodulin 1 was used as an ICB marker. The results are illustrated in FIG. 17.

[2] = target: T1, FCHo1-C-3×DDK (full-length wild-type …); experiment: co-immunoprecipitation with anti-FLAG antibody
Akt1 [3] = target: T2, Akt1; experiment: biotin peptide on streptavidin plate, cell lysate, detection with Akt1 antibody
From the text: To confirm the binding affinity between Akt1 and Akt1 motif-containing FCHo1 amino acid sequence-derived peptides, biotin was conjugated to peptides to complete the synthetization. The peptides were reacted and attached to on the streptavidin-attached plate. After treating with the cell lysates, the binding affinity of the peptide and Akt1 was confirmed by the Akt1 antibody. The experiment process and its result of confirming in vitro binding affinity of Akt1 according to respective peptides derived from FCHo1 binding sites are illustrated in FIG. 28.

Row | Binder | binding result (Akt1 [3]) | also measured
1 | C-terminal (CT) fragment of FCHo1 cleaved at R563 (other, human, UniProt O14526 564-889, looked up, Fragment in cells, seen by immunofluorescence and PLA with the α584-804 antibody) LRSRKVSCPLTRSNGDLSRSLSPSPLGSSAASTALERPSFLSQTGHGVSRGPSPVVLGSQDALPIATAFTEYVHAYFRGHSPSCLARVTGELTMTFPAGIVRVFSGTPPPPVLSFRLVHTTAIEHFQPNADLLFSDPSQSDPETKDFWLNMAALTEALQRQAEQNPTASYYNVVLLRYQFSRPGPQSVPLQLSAHWQCGATLTQVSVEYGYRPGATAVPTPLTNVQILLPVGEPVTNVRLQPAATWNLEEKRLTWRLPDVSEAGGSGRLSASWEPLSGPSTPSPVAAQFTSEGTTLSGVDLELVGSGYRMSLVKRRFATGMYLVSC |  | binding result (Akt1 [1]): binds
2 | CT-fragment (564-889aa) of FCHo1-HA (other, human, UniProt O14526 564-889, looked up, Cleavage product of FCHo1-HA in the cells, seen on the blot of the co-IP; not shown: C-terminal 3×HA tag) LRSRKVSCPLTRSNGDLSRSLSPSPLGSSAASTALERPSFLSQTGHGVSRGPSPVVLGSQDALPIATAFTEYVHAYFRGHSPSCLARVTGELTMTFPAGIVRVFSGTPPPPVLSFRLVHTTAIEHFQPNADLLFSDPSQSDPETKDFWLNMAALTEALQRQAEQNPTASYYNVVLLRYQFSRPGPQSVPLQLSAHWQCGATLTQVSVEYGYRPGATAVPTPLTNVQILLPVGEPVTNVRLQPAATWNLEEKRLTWRLPDVSEAGGSGRLSASWEPLSGPSTPSPVAAQFTSEGTTLSGVDLELVGSGYRMSLVKRRFATGMYLVSC |  | binding result [2]: no binding
3 | RRLRSRKVSC (also: biotin conjugated, position not given here, Attached to a streptavidin plate by its biotin) [peptide 562-571 of FCHo1 (RRLRSRKVSC), biotin-conjugated] | binds | 
4 | PPRRLRSRKVSC (also: biotin conjugated, position not given here, Attached to a streptavidin plate by its biotin) [peptide 560-571 of FCHo1 (PPRRLRSRKVSC), biotin-conjugated] | binds | 
